Assay results: the supplement of paper PMC7125110
± gives the standard error. This sample holds only a part of the variants without activity.

B1: glmS ribozyme (parent)
chain: AUAAAAGCGCCAGAACUACAGAAAUGUAGUUGACGAGGAGGAGGUUUAUCGAAUUUUCGGCGGAUGCCUCCAAA

Variants of: B1
Test: self-cleavage kobs at 2500 uM GlcN6P; higher = faster cleavage; RNA array
Conditions: with glucosamine-6-phosphate
Outline: (§1)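 On sequenced MiSeq chips, barcoded ribozyme variants were made in situ by E. coli RNA polymerase and followed at 37 °C through a hybridised Cy3 probe. Glucosamine-6-phosphate was flowed in at 40 μM to 10 mM in HEPES/KCl/Mg(OAc)2 buffer. Exponential fits to normalised per-tile medians gave kobs, and weighted Michaelis–Menten fits gave kcat and KM.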

A6C U31C G59C G62U and A42U C58A C61G cannot be ordered by “self-cleavage kobs at 2500 uM GlcN6P” value: under 1e-05 s⁻¹ for the first, under 1e-05 s⁻¹ for the second.

Compared with A6U A39G C70U, G43U C70G C71A is lower in “self-cleavage kobs at 2500 uM GlcN6P” value: 8.18e-05 ± 3.2e-05 s⁻¹ for the first, under 1e-05 s⁻¹ for the second.

First: A6C A39G G51C
Second: A6G G38A C50G U57G C68U
The “self-cleavage kobs at 2500 uM GlcN6P” value of the first is lower: under 1e-05 s⁻¹ for the first, 8.04e-05 ± 1.4e-05 s⁻¹ for the second.

A42U G44C C68U and A6U U31A G37C U54A cannot be ordered by “self-cleavage kobs at 2500 uM GlcN6P” value: under 1e-05 s⁻¹ for the first, under 1e-05 s⁻¹ for the second.

A6U C16G G29U G43C U47G U54C and G43A A48U C50A cannot be ordered by “self-cleavage kobs at 2500 uM GlcN6P” value: under 1e-05 s⁻¹ for the first, under 1e-05 s⁻¹ for the second.

First: C50G C67G C70U C71A
Second: G7A C34U A36C
The “self-cleavage kobs at 2500 uM GlcN6P” value of the first is higher: 0.000157 ± 2.9e-05 s⁻¹ for the first, under 1e-05 s⁻¹ for the second.

A6G U55A C61G and C58G U65C cannot be ordered by “self-cleavage kobs at 2500 uM GlcN6P” value: under 1e-05 s⁻¹ for the first, under 1e-05 s⁻¹ for the second.

A42U U47A U49A and A6G C11G U47A cannot be ordered by “self-cleavage kobs at 2500 uM GlcN6P” value: under 1e-05 s⁻¹ for the first, under 1e-05 s⁻¹ for the second.

First: U55C C58A C70U
Second: A6U A12C C34U A48G C61G A64U
The “self-cleavage kobs at 2500 uM GlcN6P” value of the first is higher: 5.54e-05 ± 1.5e-05 s⁻¹ for the first, under 1e-05 s⁻¹ for the second.

Going from U46C G51U A52G U55A C61G to U54A U57A, the “self-cleavage kobs at 2500 uM GlcN6P” value rises from under 1e-05 s⁻¹ to 0.000102 ± 2.8e-05 s⁻¹.

G7A G32U G60U and A6C A14G C50U cannot be ordered by “self-cleavage kobs at 2500 uM GlcN6P” value: under 1e-05 s⁻¹ for the first, under 1e-05 s⁻¹ for the second.

G43A U46G C70G and A6G G29C U31C cannot be ordered by “self-cleavage kobs at 2500 uM GlcN6P” value: under 1e-05 s⁻¹ for the first, under 1e-05 s⁻¹ for the second.

G7A C8G C10G G35C and G7C C50U A64C C68A cannot be ordered by “self-cleavage kobs at 2500 uM GlcN6P” value: under 1e-05 s⁻¹ for the first, under 1e-05 s⁻¹ for the second.

A6G U55C C71A and A6G C10G U30A G32U U56G cannot be ordered by “self-cleavage kobs at 2500 uM GlcN6P” value: under 1e-05 s⁻¹ for the first, under 1e-05 s⁻¹ for the second.

A6U G9C A33C C50G A52C U56C C68A C71U and G7A G13A G40C U47G cannot be ordered by “self-cleavage kobs at 2500 uM GlcN6P” value: under 1e-05 s⁻¹ for the first, under 1e-05 s⁻¹ for the second.

A6U A14C G35A and G7A G9C A36C cannot be ordered by “self-cleavage kobs at 2500 uM GlcN6P” value: under 1e-05 s⁻¹ for the first, under 1e-05 s⁻¹ for the second.

Compared with C50G C61U G66U, A42U G44U C61G is lower in “self-cleavage kobs at 2500 uM GlcN6P” value: 0.00022 ± 8e-05 s⁻¹ for the first, under 1e-05 s⁻¹ for the second.

First: U47C U55C
Second: A6C G9C G35A A52G C68U
The “self-cleavage kobs at 2500 uM GlcN6P” value of the first is higher: 0.0023 ± 0.00064 s⁻¹ for the first, under 1e-05 s⁻¹ for the second.

G43C U46A A48C and U45G G60A C67G cannot be ordered by “self-cleavage kobs at 2500 uM GlcN6P” value: under 1e-05 s⁻¹ for the first, under 1e-05 s⁻¹ for the second.

U56A C58G G59A G60A and G7A G41C U45C U47C cannot be ordered by “self-cleavage kobs at 2500 uM GlcN6P” value: under 1e-05 s⁻¹ for the first, under 1e-05 s⁻¹ for the second.

Going from C50U G63U C68G to C61G G63A C71G, the “self-cleavage kobs at 2500 uM GlcN6P” value rises from 7.59e-05 ± 3.2e-05 s⁻¹ to 0.000255 ± 9.2e-05 s⁻¹ (3.4-fold).

First: U57A C71U
Second: A6C A12G A53U
The “self-cleavage kobs at 2500 uM GlcN6P” value of the first is higher: 0.000132 ± 3.1e-05 s⁻¹ for the first, under 1e-05 s⁻¹ for the second.

Compared with A6U A12U U54G, A6G A48G C71A is lower in “self-cleavage kobs at 2500 uM GlcN6P” value: 0.000203 ± 6e-05 s⁻¹ for the first, under 1e-05 s⁻¹ for the second.

U54G U55C U56G G59C U69G and A6G U30A A39G are within error of each other in “self-cleavage kobs at 2500 uM GlcN6P” value: 6.83e-05 ± 2.7e-05 s⁻¹ for the first, 8.54e-05 ± 2.8e-05 s⁻¹ for the second.

Variants of: B1
Test: self-cleavage kobs at 640 uM GlcN6P; higher = faster cleavage; RNA array
Conditions: with glucosamine-6-phosphate
Outline: as §1

A42U C58A C61G and G43U C70G C71A cannot be ordered by “self-cleavage kobs at 640 uM GlcN6P” value: under 1e-05 s⁻¹ for the first, under 1e-05 s⁻¹ for the second.

Compared with A42U G44C C68U, U54A G66A C71U is higher in “self-cleavage kobs at 640 uM GlcN6P” value: under 1e-05 s⁻¹ for the first, 0.00501 ± 0.00099 s⁻¹ for the second.

G43A U46C U54A U56A U69C and G44C U47C A53G cannot be ordered by “self-cleavage kobs at 640 uM GlcN6P” value: under 1e-05 s⁻¹ for the first, under 1e-05 s⁻¹ for the second.

Going from U56C C61U C71G to U57G G62C C68U C70G, the “self-cleavage kobs at 640 uM GlcN6P” value rises from under 1e-05 s⁻¹ to 4.22e-05 ± 2e-05 s⁻¹.

A48U C58A C61G and G43A A48U C50A cannot be ordered by “self-cleavage kobs at 640 uM GlcN6P” value: under 1e-05 s⁻¹ for the first, under 1e-05 s⁻¹ for the second.

Compared with C50G C67G C70U C71A, A42U G51A G63U is lower in “self-cleavage kobs at 640 uM GlcN6P” value: 0.000149 ± 4.5e-05 s⁻¹ for the first, under 1e-05 s⁻¹ for the second.

Compared with U47G A52U C68G, C58G U65C is lower in “self-cleavage kobs at 640 uM GlcN6P” value: 0.000113 ± 4.9e-05 s⁻¹ for the first, under 1e-05 s⁻¹ for the second.

Compared with A42U U47A U49A, U55C C58A C70U is higher in “self-cleavage kobs at 640 uM GlcN6P” value: under 1e-05 s⁻¹ for the first, 4.34e-05 ± 1.9e-05 s⁻¹ for the second.

Compared with U46C G51U A52G U55A C61G, U54A U57A is higher in “self-cleavage kobs at 640 uM GlcN6P” value: under 1e-05 s⁻¹ for the first, 4.89e-05 ± 1.3e-05 s⁻¹ for the second.

G51U A53U U54A and G43A U46G C70G cannot be ordered by “self-cleavage kobs at 640 uM GlcN6P” value: under 1e-05 s⁻¹ for the first, under 1e-05 s⁻¹ for the second.

Compared with C61U C67G, G51U C67U U69C is higher in “self-cleavage kobs at 640 uM GlcN6P” value: under 1e-05 s⁻¹ for the first, 5.75e-05 ± 2.5e-05 s⁻¹ for the second.

First: U46G A53G C70A
Second: G43C U49A U57G C68G
The “self-cleavage kobs at 640 uM GlcN6P” value of the first is higher: 0.000507 ± 0.0001 s⁻¹ for the first, under 1e-05 s⁻¹ for the second.

Going from U49G C50U G66U C70U to U47G G51U, the “self-cleavage kobs at 640 uM GlcN6P” value falls from 8.76e-05 ± 3.9e-05 s⁻¹ to under 1e-05 s⁻¹.

G60U G63U C70A and U46G U57C G60U cannot be ordered by “self-cleavage kobs at 640 uM GlcN6P” value: under 1e-05 s⁻¹ for the first, under 1e-05 s⁻¹ for the second.

Going from C50G C61U G66U to G43C G51A C67U, the “self-cleavage kobs at 640 uM GlcN6P” value falls from 7.98e-05 ± 2.8e-05 s⁻¹ to under 1e-05 s⁻¹.

Going from A42U G44U C61G to U47C U55C, the “self-cleavage kobs at 640 uM GlcN6P” value rises from under 1e-05 s⁻¹ to 0.00134 ± 0.00031 s⁻¹.

U45G U46A U57G and G43C U46A A48C cannot be ordered by “self-cleavage kobs at 640 uM GlcN6P” value: under 1e-05 s⁻¹ for the first, under 1e-05 s⁻¹ for the second.

U45G G60A C67G and U56A C58G G59A G60A cannot be ordered by “self-cleavage kobs at 640 uM GlcN6P” value: under 1e-05 s⁻¹ for the first, under 1e-05 s⁻¹ for the second.

First: C50G C58U C61U
Second: C50U G63U C68G
The “self-cleavage kobs at 640 uM GlcN6P” value of the first is 3.8-fold higher: 0.000479 ± 0.00011 s⁻¹ for the first, 0.000126 ± 5e-05 s⁻¹ for the second.

Going from U57G C67A U69G to C61G G63A C71G, the “self-cleavage kobs at 640 uM GlcN6P” value rises from 4.87e-05 ± 2.3e-05 s⁻¹ to 0.000127 ± 4.2e-05 s⁻¹ (2.6-fold).

Going from U49G G62C to U57A C71U, the “self-cleavage kobs at 640 uM GlcN6P” value rises from under 1e-05 s⁻¹ to 5.18e-05 ± 2.1e-05 s⁻¹.

Going from U46A C50G C58G to U54G U57A C58G C68A, the “self-cleavage kobs at 640 uM GlcN6P” value rises from under 1e-05 s⁻¹ to 0.000592 ± 0.00015 s⁻¹.

Going from U45C U46G C67G to U45G U69C, the “self-cleavage kobs at 640 uM GlcN6P” value rises from 9.48e-05 ± 2.9e-05 s⁻¹ to 0.0407 ± 0.018 s⁻¹ (430-fold).

U54G U55C U56G G59C U69G was tested, and the “self-cleavage kobs at 640 uM GlcN6P” value was 0.000119 ± 4.3e-05 s⁻¹.

Variants of: B1
Test: self-cleavage kobs at 10000 uM GlcN6P; higher = faster cleavage; RNA array
Conditions: with glucosamine-6-phosphate
Outline: as §1

G51U A53U U54A and A6U G9C A33C C50G A52C U56C C68A C71U cannot be ordered by “self-cleavage kobs at 10000 uM GlcN6P” value: under 1e-05 s⁻¹ for the first, under 1e-05 s⁻¹ for the second.

Compared with G43C U46A A48C, U57A C71U is higher in “self-cleavage kobs at 10000 uM GlcN6P” value: under 1e-05 s⁻¹ for the first, 0.000407 ± 0.00015 s⁻¹ for the second.
